Where a chain is given by its changes, count along the chain named.
Legend:
Test in all cases: phage ELISA, streptavidin plate, anti-M13-HRP
Bio-P19 member A2E-1 = biological target: T1, Bio-P19 member A2E-1 (chain 2: C-terminal BirA substrate peptide (BSP), enzymatically biotinylated; its letters are not printed in the patent and it is left out)
T1 construct: also called biotinylated control peptide A2E-1/HLA-A*02:01 monomer
Method in brief: (§1)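 ELISA: clones incubated on streptavidin-captured biotinylated peptide/HLA-A*02:01 complex, detected by HRP-conjugated anti-M13 with absorbance at 450 nm. FACS: T2 cells, unloaded or peptide-loaded with β2M, stained sequentially on ice (30–60 min per step) with scFv phage, anti-M13 and R-PE anti-mouse IgG.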

Bio-P19 member A2E-10 = biological target: T2, Bio-P19 member A2E-10 (chain 2: C-terminal BirA substrate peptide (BSP), enzymatically biotinylated; its letters are not printed in the patent and it is left out)
T2 construct: also called biotinylated control peptide A2E-10/HLA-A*02:01 monomer
T2 sequence (b2m, as listed by the source): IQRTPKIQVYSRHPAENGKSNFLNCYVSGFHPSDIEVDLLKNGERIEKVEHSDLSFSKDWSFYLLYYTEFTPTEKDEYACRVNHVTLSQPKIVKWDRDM
Method in brief: as §1

Bio-P19 member A2E-11 = biological target: T3, Bio-P19 member A2E-11 (chain 2: C-terminal BirA substrate peptide (BSP), enzymatically biotinylated; its letters are not printed in the patent and it is left out)
T3 construct: also called biotinylated control peptide A2E-11/HLA-A*02:01 monomer
T3 sequence (b2m, as listed by the source): as above
Method in brief: as §1

Bio-P19 member A2E-13 = biological target: T4, Bio-P19 member A2E-13 (chain 2: C-terminal BirA substrate peptide (BSP), enzymatically biotinylated; its letters are not printed in the patent and it is left out)
T4 construct: also called biotinylated control peptide A2E-13/HLA-A*02:01 monomer
T4 sequence (b2m, as listed by the source): as above
Method in brief: as §1

Bio-P19 member A2E-15 = biological target: T5, Bio-P19 member A2E-15 (chain 2: C-terminal BirA substrate peptide (BSP), enzymatically biotinylated; its letters are not printed in the patent and it is left out)
T5 construct: also called biotinylated control peptide A2E-15/HLA-A*02:01 monomer
T5 sequence (b2m, as listed by the source): as above
Method in brief: as §1

Bio-P19 member A2E-17 = biological target: T6, Bio-P19 member A2E-17 (chain 2: C-terminal BirA substrate peptide (BSP), enzymatically biotinylated; its letters are not printed in the patent and it is left out)
T6 construct: also called biotinylated control peptide A2E-17/HLA-A*02:01 monomer
T6 sequence (b2m, as listed by the source): as above
Method in brief: as §1

Bio-P19 member A2E-19 = biological target: T7, Bio-P19 member A2E-19 (chain 2 carries a C-terminal BirA substrate peptide (BSP), enzymatically biotinylated; the BSP letters are not given in the patent and are left out)
T7 construct: also called biotinylated control peptide A2E-19/HLA-A*02:01 monomer
T7 sequence (beta, as listed by the source): as the sequence (b2m, as listed by the source) above
Method in brief: as §1

Bio-P19 member A2E-21 = biological target: T8, Bio-P19 member A2E-21 (chain 2 carries a C-terminal BirA substrate peptide (BSP), enzymatically biotinylated; the BSP letters are not given in the patent and are left out)
T8 construct: also called biotinylated control peptide A2E-21/HLA-A*02:01 monomer
T8 sequence (beta, as listed by the source): as the sequence (b2m, as listed by the source) above
Method in brief: as §1

Bio-P19 member A2E-23 = biological target: T9, Bio-P19 member A2E-23 (chain 2 carries a C-terminal BirA substrate peptide (BSP), enzymatically biotinylated; the BSP letters are not given in the patent and are left out)
T9 construct: also called biotinylated control peptide A2E-23/HLA-A*02:01 monomer
T9 sequence (beta, as listed by the source): as the sequence (b2m, as listed by the source) above
Method in brief: as §1

Bio-P19 member A2E-2 = biological target: T10, Bio-P19 member A2E-2 (chain 2 carries a C-terminal BirA substrate peptide (BSP), enzymatically biotinylated; the BSP letters are not given in the patent and are left out)
T10 construct: also called biotinylated control peptide A2E-2/HLA-A*02:01 monomer
T10 sequence (beta, as listed by the source): as the sequence (b2m, as listed by the source) above
Method in brief: as §1

Bio-P19 member A2E-3 = biological target: T11, Bio-P19 member A2E-3 (chain 2 carries a C-terminal BirA substrate peptide (BSP), enzymatically biotinylated; the BSP letters are not given in the patent and are left out)
T11 construct: also called biotinylated control peptide A2E-3/HLA-A*02:01 monomer
T11 sequence (beta, as listed by the source): as the sequence (b2m, as listed by the source) above
Method in brief: as §1

Bio-P19 member A2E-4 = biological target: T12, Bio-P19 member A2E-4 (chain 2 carries a C-terminal BirA substrate peptide (BSP), enzymatically biotinylated; the BSP letters are not given in the patent and are left out)
T12 construct: also called biotinylated control peptide A2E-4/HLA-A*02:01 monomer
T12 sequence (beta, as listed by the source): as the sequence (b2m, as listed by the source) above
Method in brief: as §1

Bio-P19 member A2E-6 = biological target: T13, Bio-P19 member A2E-6 (chain 2 carries a C-terminal BirA substrate peptide (BSP), enzymatically biotinylated; the BSP letters are not given in the patent and are left out)
T13 construct: also called biotinylated control peptide A2E-6/HLA-A*02:01 monomer
T13 sequence (beta, as listed by the source): as the sequence (b2m, as listed by the source) above
Method in brief: as §1

Bio-P19 member A2E-7 = biological target: T14, Bio-P19 member A2E-7 (chain 2 (heavy): C-terminal BirA substrate peptide, biotinylated there by BirA; tag letters not given, left out)
T14 construct: also called biotinylated control peptide A2E-7/HLA-A*02:01 monomer; not shown: BirA substrate peptide (BSP) tag at the C-terminus of the heavy chain
T14 sequence (b2m, as listed by the source): as above
Method in brief: as §1

Bio-P19 member A2E-8 = biological target: T15, Bio-P19 member A2E-8 (chain 2 (heavy): C-terminal BirA substrate peptide, biotinylated there by BirA; tag letters not given, left out)
T15 construct: also called biotinylated control peptide A2E-8/HLA-A*02:01 monomer; not shown: BirA substrate peptide (BSP) tag at the C-terminus of the heavy chain
T15 sequence (b2m, as listed by the source): as above
Method in brief: as §1

Bio-P19 member A2E-9 = biological target: T16, Bio-P19 member A2E-9 (chain 2 (heavy): C-terminal BirA substrate peptide, biotinylated there by BirA; tag letters not given, left out)
T16 construct: also called biotinylated control peptide A2E-9/HLA-A*02:01 monomer; not shown: BirA substrate peptide (BSP) tag at the C-terminus of the heavy chain
T16 sequence (b2m, as listed by the source): as above
Method in brief: as §1

Measured: binding result

T1 sequence (b2m, as listed by the source): as above

B1: PSA146/HLA-A*02:01-specific scFv phage clone #2 (scFv, V domains shown)
VH: EVQLVQSGAEVKRPGSSVKVSCKASGGTFSSYAINWVRRAPGQGLEWMGKIIPIPGITNYAQKFQDRVTFTADTSTNIAYMELSSLRSEDTAMYYCARSYKWGSSLVDAWGQGTLVTVSS
VL: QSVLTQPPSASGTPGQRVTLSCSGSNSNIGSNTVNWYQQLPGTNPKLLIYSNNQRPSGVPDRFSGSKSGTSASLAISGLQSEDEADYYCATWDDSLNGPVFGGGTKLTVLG
no binding: all assays above

B2: PSA146/HLA-A*02:01-specific scFv phage clone #17 (scFv, V domains shown)
VH: QMQLVQSGAEVKKPGESLKISCKGSGYSFTSYWIGWVRQMPGKGLEWMGIIYPGDSDTRYSPSFQGQVTISADKSISTAYLQWSSLKASDTAMYYCARLVVPDAFDIWGQGTMVTVSS
VL: QSVVTQPPSVSAAPGQKVTISCSGSSSNIGNNYVSWYQQLPGTAPKLLIYDNYKRPSGIPDRFSGSKSGTSATLGITGLQTGDEADYYCGTWDSSLSAGVFGGGTKLTVLG
not listed: Bio-P19 member A2E-23 | Bio-P19 member A2E-2 | Bio-P19 member A2E-3
no binding: all other assays above

B3: PSA146/HLA-A*02:01-specific scFv phage clone #6 (scFv, V domains shown)
VH: EVQLVQSGAEVKKPGASVKVSCKASGYTFTGYYIHWVRQAPGQGLEWMGGFDPEDGETIYAQKFQDRVTMTADTSTDTAYMELSSLRSEDTAVYYCARYGFDYWGQGTLVTVSS
VL: QAVVTQEPSLTVSPGGTVTLTCASSTGAVTSGYYPNWFQLKPGQAPRALIYTTGKKHSWAPARFSGSLLGGKAALTLSGVQPEDEAEYYCLLYSGGVWVFGGGTKLTVLG
no binding: all assays above

B4: PSA146/HLA-A*02:01-specific scFv phage clone #3 (scFv, V domains shown)
VH: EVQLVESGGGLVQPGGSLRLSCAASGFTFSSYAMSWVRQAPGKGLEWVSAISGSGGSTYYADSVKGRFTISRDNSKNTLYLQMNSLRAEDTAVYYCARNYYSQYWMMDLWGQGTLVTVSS
VL: QSVLTQPPSVSGAPGQRVTISCTGSSSNFGAGYDVHWYQQLPGAAPKLLIYGDTNRPSGVPDRFSGSKSGTSASLAITGLQAEDEADYYCQSYDTSLSGSVFGGGTKLTVLG
no binding: all assays above

B5: PSA146/HLA-A*02:01-specific scFv phage clone #5 (scFv, V domains shown)
VH: QVQLVQSGAEVKKPGDSVKVSCKPSGYNFLNYGINWVRQAPGQGLEWMGWISTYTGNTNYAQKLQGRVTFTTDTSTSTAYMEMRSLRSDDTAVYYCARSSEYYTWDHWGQGTLVTVSS
VL: B4 VL with F29I, A44T, D53N, T54S, T95S, S100W
no binding: all assays above
